Laboratory results: patent US20100047226A1 (published 2010)

Columns and labels:
Assay in all cases: cell-based or functional assay
TrkB (active form) = TrkB (active form) (UniProt Q16620 526-822, limits assumed)
SGK (active form) = target: T1, SGK (active form) (UniProt O00141 60-431, limits assumed)
T1 sequence (looked up): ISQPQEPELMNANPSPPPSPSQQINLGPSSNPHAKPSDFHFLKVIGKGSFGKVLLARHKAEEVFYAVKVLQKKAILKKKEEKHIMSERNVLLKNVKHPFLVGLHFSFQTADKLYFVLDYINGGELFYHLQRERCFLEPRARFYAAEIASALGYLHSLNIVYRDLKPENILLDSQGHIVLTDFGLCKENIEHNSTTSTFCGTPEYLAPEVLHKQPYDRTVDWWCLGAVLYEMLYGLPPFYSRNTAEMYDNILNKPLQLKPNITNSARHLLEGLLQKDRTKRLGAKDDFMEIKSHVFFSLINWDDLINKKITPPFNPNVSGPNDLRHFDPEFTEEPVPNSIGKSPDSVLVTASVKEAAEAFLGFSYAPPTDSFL

Abl (active form) = Abl (active form) (UniProt P00519 27-1130, limits assumed)
p70S6K (active form) = p70S6K (active form) (UniProt P23443 1-421)
JAK3 (active form) = JAK3 (active form) (UniProt P52333 781-1124, limits assumed)
PI3K[…] (active form) = target: PI3K[…] (active form)
AKT2 (active form) = AKT2 (active form) (UniProt P31751 120-481, limits assumed)
PAK3 (active form) = PAK3 (active form) (UniProt O75914 1-559, limits assumed)
Chain of PAK3 (active form) (O75914 whole entry): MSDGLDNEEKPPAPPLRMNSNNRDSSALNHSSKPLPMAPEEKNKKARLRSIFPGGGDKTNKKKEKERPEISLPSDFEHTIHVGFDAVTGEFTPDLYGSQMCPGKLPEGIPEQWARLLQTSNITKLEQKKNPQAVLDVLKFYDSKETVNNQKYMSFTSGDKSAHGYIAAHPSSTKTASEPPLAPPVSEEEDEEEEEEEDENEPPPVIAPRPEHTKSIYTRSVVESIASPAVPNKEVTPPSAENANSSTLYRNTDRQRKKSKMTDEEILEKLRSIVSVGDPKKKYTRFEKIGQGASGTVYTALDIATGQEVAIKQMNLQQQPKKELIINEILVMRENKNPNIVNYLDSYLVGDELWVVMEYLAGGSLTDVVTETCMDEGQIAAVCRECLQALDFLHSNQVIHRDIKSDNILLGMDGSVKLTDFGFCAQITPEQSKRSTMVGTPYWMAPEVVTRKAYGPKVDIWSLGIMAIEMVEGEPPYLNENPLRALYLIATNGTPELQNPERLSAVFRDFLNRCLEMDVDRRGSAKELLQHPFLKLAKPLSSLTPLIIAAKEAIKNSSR

Chain of TrkB (active form) (Q16620 526-822 limits assumed): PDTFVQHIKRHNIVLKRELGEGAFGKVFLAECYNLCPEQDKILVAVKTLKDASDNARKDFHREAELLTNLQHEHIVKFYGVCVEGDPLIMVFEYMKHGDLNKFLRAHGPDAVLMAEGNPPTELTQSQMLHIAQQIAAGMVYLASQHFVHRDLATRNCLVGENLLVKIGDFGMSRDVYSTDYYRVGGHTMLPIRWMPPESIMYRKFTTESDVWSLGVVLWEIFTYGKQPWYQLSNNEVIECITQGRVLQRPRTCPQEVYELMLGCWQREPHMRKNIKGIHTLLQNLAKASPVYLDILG
Chain of AKT2 (active form) (P31751 120-481 limits assumed): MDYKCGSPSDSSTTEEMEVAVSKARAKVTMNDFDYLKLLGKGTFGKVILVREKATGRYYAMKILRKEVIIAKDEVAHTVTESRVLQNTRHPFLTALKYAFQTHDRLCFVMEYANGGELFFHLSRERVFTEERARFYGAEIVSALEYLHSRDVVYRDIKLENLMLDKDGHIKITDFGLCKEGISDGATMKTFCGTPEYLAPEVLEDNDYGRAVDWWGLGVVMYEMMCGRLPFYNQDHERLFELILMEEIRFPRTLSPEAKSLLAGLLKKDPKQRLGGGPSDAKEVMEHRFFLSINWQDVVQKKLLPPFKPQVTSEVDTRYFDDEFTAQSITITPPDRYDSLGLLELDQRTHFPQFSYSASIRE
Chain of Abl (active form) (P00519 27-1130 limits assumed): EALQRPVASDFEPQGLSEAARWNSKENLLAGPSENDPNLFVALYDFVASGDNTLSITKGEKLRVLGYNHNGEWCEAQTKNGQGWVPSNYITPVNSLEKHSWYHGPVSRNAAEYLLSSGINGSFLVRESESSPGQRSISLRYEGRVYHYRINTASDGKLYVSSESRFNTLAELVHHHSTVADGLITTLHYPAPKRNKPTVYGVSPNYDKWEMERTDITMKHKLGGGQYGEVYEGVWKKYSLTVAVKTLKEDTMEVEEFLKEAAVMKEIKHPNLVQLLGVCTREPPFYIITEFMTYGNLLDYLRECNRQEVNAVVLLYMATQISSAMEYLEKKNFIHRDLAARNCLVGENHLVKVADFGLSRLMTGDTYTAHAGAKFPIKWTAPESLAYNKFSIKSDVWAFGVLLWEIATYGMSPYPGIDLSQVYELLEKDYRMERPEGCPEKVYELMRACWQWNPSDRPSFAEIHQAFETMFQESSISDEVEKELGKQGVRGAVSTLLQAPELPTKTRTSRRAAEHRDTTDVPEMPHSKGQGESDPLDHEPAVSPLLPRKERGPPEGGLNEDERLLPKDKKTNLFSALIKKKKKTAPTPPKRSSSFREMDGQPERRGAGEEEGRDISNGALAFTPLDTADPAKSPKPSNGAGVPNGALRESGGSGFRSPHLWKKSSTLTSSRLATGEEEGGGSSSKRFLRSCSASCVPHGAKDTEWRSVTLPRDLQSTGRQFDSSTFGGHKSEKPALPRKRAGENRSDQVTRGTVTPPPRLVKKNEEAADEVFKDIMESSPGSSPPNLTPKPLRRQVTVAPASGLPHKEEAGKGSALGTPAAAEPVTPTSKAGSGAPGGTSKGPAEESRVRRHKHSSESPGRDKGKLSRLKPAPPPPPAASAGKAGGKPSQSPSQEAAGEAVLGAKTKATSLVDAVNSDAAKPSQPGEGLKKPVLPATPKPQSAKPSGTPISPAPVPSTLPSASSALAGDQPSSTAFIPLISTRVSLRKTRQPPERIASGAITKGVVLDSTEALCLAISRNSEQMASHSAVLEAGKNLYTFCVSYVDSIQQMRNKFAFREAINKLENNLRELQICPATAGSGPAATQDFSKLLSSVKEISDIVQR
Chain of p70S6K (active form) (P23443 1-421): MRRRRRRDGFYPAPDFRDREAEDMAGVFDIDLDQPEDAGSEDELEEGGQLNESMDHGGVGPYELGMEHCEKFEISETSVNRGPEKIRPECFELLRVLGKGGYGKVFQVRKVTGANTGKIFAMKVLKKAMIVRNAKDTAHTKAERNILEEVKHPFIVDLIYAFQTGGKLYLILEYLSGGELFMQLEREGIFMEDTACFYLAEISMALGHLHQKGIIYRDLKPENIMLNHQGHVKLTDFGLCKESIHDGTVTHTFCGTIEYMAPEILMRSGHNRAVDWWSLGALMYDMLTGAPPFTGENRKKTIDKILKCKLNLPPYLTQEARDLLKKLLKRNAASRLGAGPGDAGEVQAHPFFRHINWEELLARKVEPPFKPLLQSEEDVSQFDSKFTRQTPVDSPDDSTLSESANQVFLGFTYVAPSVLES
Chain of JAK3 (active form) (P52333 781-1124 limits assumed): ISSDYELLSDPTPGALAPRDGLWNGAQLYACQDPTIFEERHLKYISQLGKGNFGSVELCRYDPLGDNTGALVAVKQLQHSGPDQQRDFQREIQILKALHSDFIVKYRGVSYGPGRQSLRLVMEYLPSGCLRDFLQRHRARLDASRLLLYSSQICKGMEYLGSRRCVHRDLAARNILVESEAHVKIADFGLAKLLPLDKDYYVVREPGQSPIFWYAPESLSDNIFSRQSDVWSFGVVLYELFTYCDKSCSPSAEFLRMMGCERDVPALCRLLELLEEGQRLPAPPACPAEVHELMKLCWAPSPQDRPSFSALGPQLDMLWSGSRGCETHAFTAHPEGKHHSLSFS

B1: ZaTa peptide (PKAc fragment flanking Thr-197) (peptide)
peptide: AKRVKGRTWTLCGTPEY
- in vitro kinase assay at ten times the IC50 for AKT1 (TrkB (active form)): 84%
- in vitro kinase assay at ten times the IC50 for AKT1 (SGK (active form)): 73%
- in vitro kinase assay at ten times the IC50 for AKT1 (Abl (active form)): 42%
- in vitro kinase assay at ten times the IC50 for AKT1 (p70S6K (active form)): 64%
- in vitro kinase assay at ten times the IC50 for AKT1 (JAK3 (active form)): 79%
- in vitro kinase assay at ten times the IC50 for AKT1 (PI3K[…] (active form)): 72%
- in vitro kinase assay at ten times the IC50 for AKT1 (AKT2 (active form)): 63%
- in vitro kinase assay at ten times the IC50 for AKT1 (PAK3 (active form)): 83%
